From paper PMC7113306

Biological target: T1, ALK2-Fc, Q04771
T1 chain: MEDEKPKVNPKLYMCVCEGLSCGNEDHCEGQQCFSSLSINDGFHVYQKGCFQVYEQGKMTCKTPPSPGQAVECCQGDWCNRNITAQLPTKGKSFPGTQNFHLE
Assay: SPR
Details: ligand; chains chain; remark: other sources report otherwise

B1: BMP9 GF-domain (bone morphogenetic protein 9 growth factor domain), Q9UK05 320-429 (protein)
chain: SAGAGSHCQKTSLRVNFEDIGWDSWIIAPKEYEAYECKGGCFFPLADDVTPTKHAIVQTLVHLKFPTKVGKACCVPTKLSPISVLYKDDMGVPTLKYHYEGMSVAECGCR
Kd: 83 nM
